Legend:
[1] = tested on: CT-26 syngeneic liver metastasis; test: immunofluorescence on murine CT-26 colorectal cancer tissue sections; parameters: species or system mouse; conditions: Cy5 labelled antibody, 10 μg/mL
Experimental: NI-206.82C2 was prelabelled with Cyanine 5 antibody labeling kit (Innova Biosciences, 342-0010), and sufficient antibody labelling was validated with a photospectrometer. Cryosections of mouse livers containing syngeneic CT-26 liver metastasis were allowed to dry for 30 min at room temperature the fixed for 10 min in 4% formalin in PBS. Slides were then washed 3 times for 5 minutes in PBS and blocked for 1 hr at room temperature with 5% bovine serum albumin in PBS.
The slides were then incubated overnight at 4° C. with staining solution containing DAPI at 0.5 μg/mL, and Alexa 547 phalloidin (Invitrogen) according to the manufacturer's instructions, and either Cy5 labelled NI-206.82C2 or a Cy5 labelled isotype-matched control antibody 3A1 at a concentration of 10 μg/mL, in blocking solution with 0.5% Triton X100. Slides were then washed 3 times in PBS, mounted in Lisbeth's mounting medium, and imaged with an SP8 confocal microscope (Leica Microsystems).

FAP in human plasma = molecular target: T1, FAP in human plasma (Homo sapiens, UniProt Q12884); test: immunoprecipitation of FAP from human plasma, α2AP-AMC cleavage; format: biochemical; conditions: compared to plasma before immunoprecipitation
T1 construct: from tissue; host or cells: human blood plasma
T1 sequence (Q12884 24-760 limits assumed): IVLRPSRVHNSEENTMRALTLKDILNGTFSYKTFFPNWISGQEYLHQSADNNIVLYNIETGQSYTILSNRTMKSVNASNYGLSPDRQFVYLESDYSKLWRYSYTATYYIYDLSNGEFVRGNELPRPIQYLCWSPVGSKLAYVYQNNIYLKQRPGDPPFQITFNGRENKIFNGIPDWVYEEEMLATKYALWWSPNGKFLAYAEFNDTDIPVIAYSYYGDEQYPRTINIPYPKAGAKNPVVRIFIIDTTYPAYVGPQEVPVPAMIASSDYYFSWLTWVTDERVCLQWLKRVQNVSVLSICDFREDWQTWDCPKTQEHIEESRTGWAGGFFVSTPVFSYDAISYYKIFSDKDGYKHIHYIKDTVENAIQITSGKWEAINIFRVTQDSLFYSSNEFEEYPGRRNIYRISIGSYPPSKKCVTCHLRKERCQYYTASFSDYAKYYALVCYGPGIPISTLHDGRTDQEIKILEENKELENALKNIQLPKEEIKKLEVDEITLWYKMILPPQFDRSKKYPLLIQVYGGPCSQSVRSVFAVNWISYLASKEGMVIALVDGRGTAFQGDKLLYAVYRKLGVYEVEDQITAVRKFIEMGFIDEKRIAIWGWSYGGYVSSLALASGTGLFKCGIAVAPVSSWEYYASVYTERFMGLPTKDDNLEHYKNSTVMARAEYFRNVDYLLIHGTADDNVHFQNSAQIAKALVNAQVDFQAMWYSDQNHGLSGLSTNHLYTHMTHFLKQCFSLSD
Experimental: 100 μL of PureProteome G Magnetic Beads (Millipore LSKMAGG02) were suspended in 500 μL of 25 mM TRIS, 0.15M NaCl, and 0.1% Tween 20. Human plasma was diluted 1:5 in PBS to an end volume of 125 μL, separated into four tubes, and incubated for 30 min at RT with rotation. Beads were then collected with a magnetic stand, and the pre-cleared supernatant was transferred to a new tube containing magnetic beads coated with 82C2, 43A11, or 3A1. Antibody-conjugated beads were incubated with the plasma dilution overnight at 4° C. while rotating. Beads were then collected with a magnetic stand and the supernatant was removed of analysis of α2AP-AMC cleavage activity. To determine α2AP-AMC activity in the supernatants, a half area black 96 well plate was blocked with sterile filtered 5% BSA at 37° C. for 1 h. Then 40 μL of PBS was added to all the wells, 5 μL of the supernatant solutions to the appropriate wells, and 5 μL of α2AP-AMC solution in methanol was added for a final assay concentration of 10 μM. The fluorescence intensity (cleaved AMC) was measured at 360 nm excitation and 460 nm emission every 3 min over a total time of 30 min and the reaction velocity was calculated using Graphpad Prism 6 software.

[2] = tested on: obstructive human coronary thrombi and aortic atherosclerotic plaque; test: confocal immunofluorescence on human coronary thrombi and aortic atherosclerotic plaque; conditions: Cy3 labelled antibody
Experimental: NI-206.82C2 was labelled with Cyanine 3 for fluorescent imaging (Cy3 conjugation kit: Innova Biosciences, 340-0030) and antibody labelling was validated using a spectophotometer. Cryosections from myocardial infarction causing obstructive human coronary thrombi (FIG. 14, A) and human aortic atherosclerotic plaque (FIG. 14, B) were fixed for 5 minutes in ice cold acetone and allowed to dry for 10 minutes before washing in PBS. The sections were then incubated for 1 hr at room temperature in 5% BSA in PBS, and then incubated with Cyanine 3 labelled antibodies overnight at 4° C., before washing three times in PBS before incubation with DAPI at 0.5 μg/mL. Sections were then washed three additional times in PBS and mounted in Lisbeth's mounting medium before imaging on a SP8 confocal microscope (Leica Microsystems).

rate of α2AP-AMC cleavage in plasma after immunoprecipitation (FAP in human plasma): significantly reduces | binding to human coronary thrombi and aortic atherosclerotic plaque [2]: binds
B1: NI-206.82C2: human-derived recombinant anti-FAP antibody; VH SEQ ID NO: 2 or 4 (PIMC), VL SEQ ID NO: 6 (antibody, V domains shown)
VH: QVQLQQSGPGLVKPSQTLSLTCAISGDSVSSNSVTWNWIRQSPSRGLEWLGRTYYRSKWYNDYAVSVKGRITINPDTSKNQFYLQLKSVTPEDAAVYYCARDSSILYGDYWGQGTLVTVSS
VL: QAVLTQPSSLSASPGASASLTCTLPSGINVGTYRIFWFQQKPGSPPQYLLSYKSDSDNHQGSGVPSRFSGSKDASANAGILLISGLQSEDEADYYCMIWHSSAWVFGGGTKLTVL
staining of murine CT-26 liver metastasis sections [1]: found around the perimeter
